In one assay the target is T1, NPR-11 (Caenorhabditis elegans, UniProt Q18179).
T1 sequence (Q18179 1-402): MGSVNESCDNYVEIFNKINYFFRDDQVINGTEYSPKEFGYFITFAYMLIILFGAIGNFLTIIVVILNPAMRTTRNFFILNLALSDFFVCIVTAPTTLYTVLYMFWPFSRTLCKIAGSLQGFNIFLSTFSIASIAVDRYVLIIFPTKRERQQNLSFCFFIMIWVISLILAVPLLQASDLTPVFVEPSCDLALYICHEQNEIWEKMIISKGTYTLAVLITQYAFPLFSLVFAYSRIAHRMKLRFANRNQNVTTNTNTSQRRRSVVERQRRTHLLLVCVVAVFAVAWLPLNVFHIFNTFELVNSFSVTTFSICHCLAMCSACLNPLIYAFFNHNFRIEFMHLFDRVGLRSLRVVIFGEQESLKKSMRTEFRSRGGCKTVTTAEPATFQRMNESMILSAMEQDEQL
The assay is described as follows: cAMP reporter gene assay. The following applies: wild type NPR-11. The assay is classed as cell-based, C. elegans.

In assay [1] the target is NPR-1 mutants (Caenorhabditis elegans, UniProt Q18534, E301A). The assay is described as follows: cAMP reporter gene assay. The following applies: NPR-1 E^6.59A. The format is cell-based, C. elegans. On the technique in general: Reporter assays use an easily measured gene product as a stand-in for the process of interest.
Assay [2] deals with NPR-1 mutants (Caenorhabditis elegans, UniProt Q18534, E180D). Nature of the assay: cAMP reporter gene assay. The assay is classed as cell-based, C. elegans. The following applies: NPR-1 E^5.27D.
Assay [3] has as its target T2, NPR-1 (Caenorhabditis elegans, UniProt Q18534).
T2 sequence (Q18534 1-457): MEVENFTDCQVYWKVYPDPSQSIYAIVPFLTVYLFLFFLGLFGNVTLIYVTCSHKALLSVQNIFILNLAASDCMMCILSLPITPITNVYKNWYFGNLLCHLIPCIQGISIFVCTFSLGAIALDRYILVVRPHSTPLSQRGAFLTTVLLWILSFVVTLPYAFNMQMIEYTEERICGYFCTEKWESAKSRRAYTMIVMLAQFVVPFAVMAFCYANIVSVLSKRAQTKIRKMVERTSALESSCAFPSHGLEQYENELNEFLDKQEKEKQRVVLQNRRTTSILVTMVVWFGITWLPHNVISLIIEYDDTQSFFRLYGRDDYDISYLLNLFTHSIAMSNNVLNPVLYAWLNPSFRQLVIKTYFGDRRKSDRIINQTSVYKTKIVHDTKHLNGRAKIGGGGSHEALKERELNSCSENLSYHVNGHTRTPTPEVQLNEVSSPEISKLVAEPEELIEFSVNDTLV
Nature of the assay: cAMP reporter gene assay. The format is cell-based, C. elegans. As to conditions: wild type NPR-1.

Assay [4] deals with T3, Nluc-NPR-1-eYFP (C. elegans neuropeptide receptor NPR-1, wild type) (C. elegans) (UniProt Q18534).
T3 sequence: T2 sequence (Q18534 1-457)

For assay [5], the target named is T3, Nluc-NPR-1-eYFP (C. elegans neuropeptide receptor NPR-1, wild type) (C. elegans). This is another data set of the same source.
The target in assay [6] is T2, NPR-1. The assay is described as follows: NanoBRET displacement binding assay, Nluc-NPR-1. The arrangement: species or system C. elegans. The following applies: HEK293 membranes, 100 nM [TAMRA]-FLP-21 tracer, 90 min, room temperature. (In general: Bioluminescence resonance energy transfer reports proximity on the nanometre scale.)
The target of a further assay is NPR-11 mutants (Caenorhabditis elegans, UniProt Q18179, E196D). Nature of the assay: cAMP reporter gene assay. The assay is classed as cell-based, C. elegans. The following applies: NPR-11 E^5.23D.
Assay [7] addresses NPR-11-eYFP E5.23D (C. elegans), Q18179.
Assay [8] concerns the target Nluc-NPR-11-eYFP Q3.32H (C. elegans) (UniProt Q18179). The assay is described as follows: FRET or BRET.
The target of assay [9] is Nluc-NPR-11-eYFP Q3.32A (C. elegans) (UniProt Q18179). The assay is described as follows: FRET or BRET.
For assay [10], the target named is T4, Nluc-NPR-1-eYFP (C. elegans neuropeptide receptor NPR-1, wild type) (C. elegans, UniProt Q18534 1-457).
T4 sequence (looked up): T2 sequence (Q18534 1-457)
Nature of the assay: cell-based or functional assay.

The target of assay [11] is T5, Nluc-NPR-11-eYFP (C. elegans neuropeptide receptor NPR-11, wild type) (C. elegans, UniProt Q18179 1-402).
T5 sequence (looked up): T1 sequence (Q18179 1-402)
Nature of the assay: FRET or BRET.

The target in assay [12] is T5, Nluc-NPR-11-eYFP (C. elegans …). The assay is described as follows: cell-based or functional assay.
The target in assay [13] is NPR-1-eYFP E5.27D (C. elegans), Q18534.
Assay [14] has as its target NPR-1-eYFP E6.59A (C. elegans), Q18534.
The target in assay [15] is NPR-1-eYFP E6.59D (C. elegans), Q18534.
Assay [16] has as its target Nluc-NPR-11-eYFP Q3.32A (C. elegans) (UniProt Q18179).
Assay [17] deals with T4, Nluc-NPR-1-eYFP (C. elegans …). The assay is described as follows: FRET or BRET.
Assay [18] concerns the target T3, Nluc-NPR-1-eYFP (C. elegans neuropeptide receptor NPR-1, wild type) (C. elegans). This is another data set of the same source.
Assay [19] has the same target. This is another data set of the same source.

Where “and” joins values, the source holds several entries; their conditions need not be identical. Equal entries are not always repeated. Where two headings read alike, the source gives them in different places. Where no end group is shown, it is not given here. TAMRA = 5(6)-carboxytetramethylrhodamine

Chain of NPR-11 mutants (Q18179 whole entry E196D): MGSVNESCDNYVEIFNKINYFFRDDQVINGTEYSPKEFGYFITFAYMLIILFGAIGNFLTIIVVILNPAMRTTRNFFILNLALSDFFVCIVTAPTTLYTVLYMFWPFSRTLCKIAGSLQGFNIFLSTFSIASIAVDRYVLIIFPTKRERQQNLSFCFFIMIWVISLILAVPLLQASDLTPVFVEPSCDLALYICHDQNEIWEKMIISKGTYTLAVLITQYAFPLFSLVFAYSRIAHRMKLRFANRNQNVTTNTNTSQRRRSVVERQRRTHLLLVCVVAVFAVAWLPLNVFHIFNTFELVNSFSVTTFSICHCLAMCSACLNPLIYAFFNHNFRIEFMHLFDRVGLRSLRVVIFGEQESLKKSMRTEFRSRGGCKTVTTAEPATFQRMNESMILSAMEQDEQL
Chain of NPR-1 mutants (Caenorhabditis elegans, UniProt Q18534, E180D) (Q18534 whole entry E180D): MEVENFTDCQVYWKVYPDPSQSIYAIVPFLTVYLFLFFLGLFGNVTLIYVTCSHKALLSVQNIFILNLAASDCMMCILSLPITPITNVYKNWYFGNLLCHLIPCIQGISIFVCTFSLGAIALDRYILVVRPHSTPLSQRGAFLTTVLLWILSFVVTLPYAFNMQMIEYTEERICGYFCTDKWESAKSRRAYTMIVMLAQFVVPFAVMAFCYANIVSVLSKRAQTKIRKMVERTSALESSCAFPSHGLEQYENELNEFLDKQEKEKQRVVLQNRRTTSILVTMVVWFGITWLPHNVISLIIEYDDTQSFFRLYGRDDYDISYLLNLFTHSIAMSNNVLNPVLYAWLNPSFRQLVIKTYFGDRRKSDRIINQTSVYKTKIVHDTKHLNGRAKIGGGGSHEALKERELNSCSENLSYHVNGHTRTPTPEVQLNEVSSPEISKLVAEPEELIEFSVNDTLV
Chain of NPR-1 mutants (Caenorhabditis elegans, UniProt Q18534, E301A) (Q18534 whole entry E301A): as the sequence (Q18534 whole entry E180D) above, with D180E, E301A counted along it

Consider “[R^8hArg]-FLP-21: FLP-21 variant, R^8 replaced with homoarginine”, for which the “EC50 shift relative to wild type FLP-21” value with NPR-11 came to 135 fold. Moreover, the “EC50 shift relative to wild type FLP-21 at the same receptor mutant” value is recorded as 91 fold with NPR-1 mutants [1] and 34 fold in the assay with NPR-1 mutants [2]. For the same molecule, the “EC50 shift (loss of potency) relative to wild type FLP-21” value with NPR-1 [3] was > 900 fold and 976 fold. With “[L^16Q]-FLP-34–1: FLP-34–1 variant, L^16 to glutamine (ADISTFASAINNAGRQRY-NH2)”, in the assay with NPR-11, the “receptor activation in words” value is recorded as “impaired activation”. “[R^15A]-FLP-34–1: FLP-34–1 variant, R^15 to alanine (ADISTFASAINNAGALRY-NH2)”: the “EC50 shift relative to wild type FLP-34–1” value with NPR-11 is over 900 fold. Regarding [F9Cha]-FLP-21 (peptide), the cAMP reporter gene assay (Gi/o), EC50 shift against wild type FLP-21 in [4] is over 600 fold. With [R5hArg]-FLP-21 (peptide), the cAMP reporter gene assay (Gi/o), EC50 of receptor activation in assay [5] stood at 5.2 nM.

With “[P^6A]-FLP-21: FLP-21 variant, P^6 to alanine (GLGPRALRF-NH2)”, the “EC50 shift relative to wild type FLP-21” value with NPR-11 was determined as 18 fold. Also, in the assay with NPR-1 [3], the “EC50 shift (loss of potency) relative to wild type FLP-21” value amounted to 34 fold.

Turning to “[L^16A]-FLP-34–1: FLP-34–1 variant, L^16 to alanine (ADISTFASAINNAGRARY-NH2)”, in the assay with NPR-11, the “EC50 shift relative to wild type FLP-34–1” value is over 140 fold. Turning to “[R^5A]-FLP-21: FLP-21 variant, R^5 to alanine (GLGPAPLRF-NH2)”, in the assay with NPR-1 [3], the “EC50 shift (loss of potency) relative to wild type FLP-21” value is on record as 368 fold.

With “[F^9Y]-FLP-21: FLP-21 variant, F^9 to tyrosine (GLGPRPLRY-NH2)”, the “Ki shift relative to wild type FLP-21” value with NPR-1 [6] stood at 11 fold. Also, the “receptor activation in words” value with NPR-11 is “wild type-like activity”. The “EC50 shift (loss of potency) relative to wild type FLP-21” value with NPR-1 [3] came to 14 fold. Consider “[R^17hArg]-FLP-34–1: FLP-34–1 variant, R^17 to homoarginine”, for which, in the assay with NPR-11 mutants, the “EC50 shift compared to wild type FLP-34–1 at the same receptor mutant” value worked out at 0.9 fold. The “EC50 shift relative to wild type FLP-34–1” value with NPR-11 was > 70 fold and 77 fold. On to “Ac-FLP-21: FLP-21 acetylated at the free N terminus (Ac-GLGPRPLRF-NH2)”, for which the “EC50 shift (loss of potency) relative to wild type FLP-21” value with NPR-1 [3] amounted to 3 fold. Take “[F^9Cha]-FLP-21: FLP-21 variant, F^9 replaced with cyclohexylalanine”: in the assay with NPR-11, the “EC50 shift relative to wild type FLP-21” value is 20 fold. Besides, the “EC50 shift (loss of potency) relative to wild type FLP-21” value with NPR-1 [3] was over 600 fold.

In assay [7], ADISTFASAINNAGRLRY-NH2 [FLP-34–1 (…amide)] yielded a cAMP reporter gene assay (Gi/o), EC50 against the wild type receptor of 92 fold. On to {TAMRA}-ADISTFASAINNAGRLRY-NH2 [[TAMRA]-FLP-34–1], for which the fold reduction of binding affinity against wild type NPR-11 in [8] worked out at 4 fold. Consider {TAMRA}-GLGPRPLRF-NH2 [[TAMRA]-FLP-21], for which, in [9], the Kd (commonly the constant that tells how readily two partners part at equilibrium) amounted to 190 nM. The “cAMP reporter gene assay (Gi/o), reduction of potency against wild type FLP-21” value in assay [10] was determined as 12 fold. As for GLGPRPARF-NH2 [[L7A]-FLP-21], the “fold reduction of Ki against FLP-21” value in assay [11] is under 10 fold; in assay [9] it was 100 fold. Also, the “cAMP reporter gene assay (Gi/o), decrease of activity against wild type FLP-21” value in [10] turned out to be 497 fold. Moreover, the “cAMP reporter gene assay (Gi/o), EC50 shift against wild type FLP-21” value in assay [12] was 10 fold.

As to GLGPRPLRF-NH2 [FLP-21 (…amide)], the cAMP reporter gene assay (Gi/o), EC50 of receptor activation was 495 nM in [13], 20 nM in [14], 0.13 nM in [15] and 0.1 nM in assay [16].

Consider GLGPRPLRF-NH2 [FLP-21 (GLGPRPLRFamide)], for which the affinity in [11] corresponds to a Ki of 107 nM.

For the molecule GLGPRPLRY-NH2 [[F9Y]-FLP-21], in [17], the “fold shift of Ki against wild type FLP-21” value was found to be 11 fold. Also, the “cAMP reporter gene assay (Gi/o), EC50 shift against wild type FLP-21” value in [10] turned out to be 14 fold.

On to GLGPAPLRF-NH2 [[R5A]-FLP-21], for which the cAMP reporter gene assay (Gi/o), EC50 shift against wild type FLP-21 in [18] is 368 fold. Turning to ADISTFASAINNAGRLRY-NH2 [FLP-34–1 (ADISTFASAINNAGRLRYamide)], the affinity in assay [11], expressed as Ki, was 107 nM.

Consider Ac-GLGPRPLRF-NH2 [N-terminally acetylated FLP-21], for which the cAMP reporter gene assay (Gi/o), reduction of potency against wild type FLP-21 in [19] turned out to be 3 fold. As to GLGPRALRF-NH2 [[P6A]-FLP-21], the cAMP reporter gene assay (Gi/o), decrease of activity against wild type FLP-21 in assay [18] was 34 fold.

Values taken from publication PMC8380825 (Journal of molecular biology, 2021).
